How the values were obtained:
[1] = target: T1, human C4b (human) (UniProt P0C0L4)
T1 sequence: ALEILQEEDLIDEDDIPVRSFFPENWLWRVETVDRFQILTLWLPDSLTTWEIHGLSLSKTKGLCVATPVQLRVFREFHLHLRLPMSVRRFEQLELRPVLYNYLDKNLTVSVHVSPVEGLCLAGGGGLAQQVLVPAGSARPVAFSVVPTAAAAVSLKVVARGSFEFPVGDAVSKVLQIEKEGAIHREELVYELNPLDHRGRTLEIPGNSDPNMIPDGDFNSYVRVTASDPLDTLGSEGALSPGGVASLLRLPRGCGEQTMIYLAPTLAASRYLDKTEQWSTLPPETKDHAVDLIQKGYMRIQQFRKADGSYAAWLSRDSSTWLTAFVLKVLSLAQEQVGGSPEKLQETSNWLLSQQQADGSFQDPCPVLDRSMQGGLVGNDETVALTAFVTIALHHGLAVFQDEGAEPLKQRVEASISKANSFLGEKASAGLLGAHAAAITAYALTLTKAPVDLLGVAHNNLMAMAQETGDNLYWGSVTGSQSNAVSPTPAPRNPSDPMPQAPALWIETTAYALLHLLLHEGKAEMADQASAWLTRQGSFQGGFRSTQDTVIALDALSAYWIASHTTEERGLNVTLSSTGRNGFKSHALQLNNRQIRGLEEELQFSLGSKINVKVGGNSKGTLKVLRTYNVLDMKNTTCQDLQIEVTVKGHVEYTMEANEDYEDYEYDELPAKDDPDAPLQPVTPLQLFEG

[2] = target: soluble human C3b (human) (UniProt P01024)

Chain of CFI-HSA fusion WT; GGSSGG (SEQ ID NO: 6); CR1(ccp15); fH(ccp2); fH(ccp3); fH(ccp4) (P17927 other isoform, or with tags, fused parts or gaps limits assumed): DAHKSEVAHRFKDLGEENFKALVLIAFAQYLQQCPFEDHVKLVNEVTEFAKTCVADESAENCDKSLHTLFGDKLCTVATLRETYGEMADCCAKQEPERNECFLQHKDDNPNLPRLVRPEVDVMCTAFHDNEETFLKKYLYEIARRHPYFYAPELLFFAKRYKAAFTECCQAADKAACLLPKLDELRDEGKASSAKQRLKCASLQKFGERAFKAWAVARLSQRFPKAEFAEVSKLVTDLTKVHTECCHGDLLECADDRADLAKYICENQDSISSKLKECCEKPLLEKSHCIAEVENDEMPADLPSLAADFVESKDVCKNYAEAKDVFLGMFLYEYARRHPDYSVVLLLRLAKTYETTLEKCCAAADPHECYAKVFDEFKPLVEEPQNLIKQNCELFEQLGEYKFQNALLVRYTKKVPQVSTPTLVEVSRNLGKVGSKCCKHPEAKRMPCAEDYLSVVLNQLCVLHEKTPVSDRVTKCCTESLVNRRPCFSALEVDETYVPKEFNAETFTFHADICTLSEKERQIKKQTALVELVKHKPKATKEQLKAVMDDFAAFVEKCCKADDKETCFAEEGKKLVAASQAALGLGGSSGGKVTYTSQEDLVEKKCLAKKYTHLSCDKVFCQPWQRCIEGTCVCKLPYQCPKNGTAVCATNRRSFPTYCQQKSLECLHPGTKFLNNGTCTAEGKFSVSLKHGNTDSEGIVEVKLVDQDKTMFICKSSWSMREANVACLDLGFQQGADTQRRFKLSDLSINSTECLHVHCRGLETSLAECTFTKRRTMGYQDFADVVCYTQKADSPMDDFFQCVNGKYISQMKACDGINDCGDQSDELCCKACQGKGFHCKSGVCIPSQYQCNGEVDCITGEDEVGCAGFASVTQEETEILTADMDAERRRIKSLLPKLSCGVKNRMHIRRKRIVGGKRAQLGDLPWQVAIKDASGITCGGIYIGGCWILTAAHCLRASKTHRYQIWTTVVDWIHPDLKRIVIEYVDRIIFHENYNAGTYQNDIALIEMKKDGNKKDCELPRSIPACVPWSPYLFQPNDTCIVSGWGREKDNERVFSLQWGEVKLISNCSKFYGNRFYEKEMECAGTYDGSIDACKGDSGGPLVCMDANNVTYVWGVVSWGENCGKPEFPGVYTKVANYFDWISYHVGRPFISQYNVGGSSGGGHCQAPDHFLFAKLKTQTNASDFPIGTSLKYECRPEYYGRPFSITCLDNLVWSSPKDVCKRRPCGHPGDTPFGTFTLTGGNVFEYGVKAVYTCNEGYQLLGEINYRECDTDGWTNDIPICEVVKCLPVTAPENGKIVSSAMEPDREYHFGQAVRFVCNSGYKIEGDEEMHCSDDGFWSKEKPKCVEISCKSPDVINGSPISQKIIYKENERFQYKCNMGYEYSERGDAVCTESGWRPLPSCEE

Substance | C4b Screen Ref Fold (fold of CFI-HSA wild type) [1] | iC3b Screen Ref Fold (fold of CFI-HSA wild type) [2] | C4b Screen Ref Fold (fold of reference) [1] | iC3b Screen Ref Fold (fold of reference) [2]
CFI-HSA T346R; Y408L; K504E; E530R; N531G (enzyme) | 0.1 | 0.67 | – | –
CFI-HSA variant E457G; E461Q; N531G; S507A (enzyme) | -0.05 | -0.04 | – | –
CFI-HSA variant K387G (enzyme) | 0.37 | 0.23 | – | –
CFI-HSA Y408L; E457G; F464Y (enzyme) | 5.57 | 1.13 | – | –
CFI-HSA variant D425K; Y408M; E530F; F537K (enzyme) | 0.03 | 0.07 | – | –
CFI-HSA D506Q (enzyme) | 0.47 | -0.02 | – | –
CFI-HSA variant K418G (enzyme) | – | – | 0.69 | 0.39
CFI-HSA variant D425K; S507A (enzyme) | 0.01 | -0.03 | – | –
CFI-HSA E457G; N531G (enzyme) | 6.5 | 0.88 | – | –
CFI-HSA K534M (enzyme) | 3.89 | 0.95 | – | –
CFI-HSA Y408L; N531G; E461Q; R462K (enzyme) | 6.79 | 1.24 | – | –
CFI-HSA E461Q; R462K; F464Y (enzyme) | 4.92 | 0.59 | – | –
CFI-HSA K534P (enzyme) | 0.11 | 0 | – | –
CFI-HSA variant Y408M; E530F; F537K; K504R (enzyme) | 0.05 | 0.01 | – | –
CFI-HSA variant N531P (enzyme) | – | – | 0.08 | -0.01
CFI-HSA variant R557A; N531M; Y403F; K504Y; E457G; E461L (enzyme) | 3.18 | 0.46 | – | –
CFI-HSA variant Q409Y (enzyme) | – | – | 0.29 | -0.01
CFI-HSA D506P (enzyme) | 0.18 | -0.04 | – | –
CFI-HSA variant G344R; Y408L; N531G (enzyme) | – | – | 3.03 | 0.98
CFI-HSA Y408L; R462K (enzyme) | 0.31 | 0.48 | – | –
CFI-HSA Y408L; E461Q; R462K (enzyme) | 2.53 | 1.33 | – | –
CFI-HSA variant K312A (enzyme) | – | – | 0.09 | 0.84

Substance | C4b Screen Ref Fold (fold of CFI-HSA wild type) [1] | iC3b Screen Ref Fold (fold of CFI-HSA wild type) [2] | C4b Screen Ref Fold (fold of reference) [1] | iC3b Screen Ref Fold (fold of reference) [2]
CFI-HSA P535V (enzyme) | 1.29 | 0.57 | – | –
CFI-HSA N531G; R462K (enzyme) | 6.13 | 1.17 | – | –
CFI-HSA variant K14A; Y20F; D26A; R35A; E38A (enzyme) | – | – | 0.15 | 0.11
CFI-HSA variant T377G; N422K; D425K; E457G; E461Q; E530F; N531G (enzyme) | 3.74 | 0.87 | – | –
CFI-HSA E457G; E461Q; F464Y (enzyme) | 6.56 | 1.25 | – | –
CFI-HSA variant N531E (enzyme) | – | – | 3.96 | 0.82
CFI-HSA variant G469L; R456N; E457T; K458A (enzyme) | – | – | -0.07 | 0
CFI-HSA variant K504R; S507A (enzyme) | 0.18 | -0.02 | – | –
CFI-HSA P535S (enzyme) | 2.14 | 0.58 | – | –
CFI-HSA variant V463G (enzyme) | 0.08 | 0.09 | – | –
CFI-HSA K534W (enzyme) | 2.19 | 0.81 | – | –
CFI-HSA Y408L; E457G; R462K (enzyme) | 5.24 | 1.02 | – | –
CFI-HSA variant D425K; E457G; E461Q; N531G; P558S (enzyme) | 3.25 | 1.98 | – | –
CFI-HSA T407G; E457G (enzyme) | 0.42 | 0.89 | – | –
CFI-HSA E457G; Y408L (enzyme) | 4.83 | 1.39 | – | –
CFI-HSA variant I560V (enzyme) | – | – | 1.27 | 1.31
CFI-HSA variant L386G (enzyme) | 0.07 | 0.54 | – | –
CFI-HSA N531G; R462K; F464Y (enzyme) | 6.27 | 0.78 | – | –
CFI-HSA variant K504R; P558S (enzyme) | 0.17 | 1.19 | – | –
CFI-HSA variant Y408F; N531M (enzyme) | 1.77 | 1.92 | – | –
CFI-HSA K534R (enzyme) | 1.81 | 1.44 | – | –
CFI-HSA variant Y403F; D425K; E457G; N531G (enzyme) | 3.85 | 0.22 | – | –

Substance | C4b Screen Ref Fold (fold of CFI-HSA wild type) [1] | iC3b Screen Ref Fold (fold of CFI-HSA wild type) [2] | C4b Screen Ref Fold (fold of reference) [1] | iC3b Screen Ref Fold (fold of reference) [2]
CFI-HSA variant Y408M; F537K; K504R; P558S (enzyme) | 0.07 | 1.26 | – | –
CFI-HSA P535F (enzyme) | 0.19 | 0.3 | – | –
CFI-HSA variant R314A (enzyme) | – | – | 1.83 | 0.85
CFI-HSA Y408L; S507A; N531G (enzyme) | 0.12 | -0.01 | – | –
CFI-HSA variant W381G; P384G; V390G (enzyme) | – | – | 0.12 | -0.02
CFI-HSA Y408L; E457G; E461Q (enzyme) | 6.36 | 1.18 | – | –
CFI-HSA variant N531V (enzyme) | – | – | 0.75 | 0.57
CFI-HSA D425N (enzyme) | 1.54 | 1.66 | – | –
CFI-HSA fusion WT; GGSSGG (SEQ ID NO: 6); CR1(ccp15); fH(ccp2); fH(ccp3); fH(ccp4) (from UniProt P17927) (enzyme) | – | – | 1.44 | -0.01
CFI-HSA variant D425K; E530F; F537K; K504R (enzyme) | 0.02 | 0.13 | – | –
CFI-HSA N531G; P535A; S507A; GGSSGG (SEQ ID NO: 6); CCP_1-4 (enzyme) | 0.2 | -0.02 | – | –
CFI-HSA variant G469L (enzyme) | – | – | 0.04 | 0
CFI-HSA variant E461N (enzyme) | – | – | 2.52 | 1.15
CFI-HSA variant F537K; P558S (enzyme) | 0.38 | 1.18 | – | –
CFI-HSA variant Y393G (enzyme) | -0.01 | 0.71 | – | –
CFI-HSA Y408L; E457G; S507A; N531G (enzyme) | 0.12 | -0.01 | – | –
CFI-HSA variant G406A; D425K; E457G; E461Q; N531G (enzyme) | 3.17 | 0.18 | – | –
CFI-HSA Y408L; N531G; E457G; R462K (enzyme) | 6.12 | 1.29 | – | –
CFI-HSA variant R557A; N531M; Y403F; K504Y; E457N; E461Q (enzyme) | 3.18 | 0.36 | – | –
CFI-HSA variant H383G (enzyme) | -0.02 | 0.02 | – | –
CFI-HSA variant N422K; E457G; E461Q; N531G (enzyme) | 3.52 | 2.02 | – | –
